Laboratory results reported in publication PMC8096250.

Target: Nhp2 (W);Cbf5;Nop10;Gar1 (Saccharomyces cerevisiae;Saccharomyces cerevisiae;Saccharomyces cerevisiae;Saccharomyces cerevisiae) (UniProt P33322+Q6Q547+P28007)
Test: smFRET
Conditions: substrate RNA binding to the reconstituted H5 RNP; substrate is an analogue RNA; sequence as assayed not given; smFRET with immobilized 3'-biotin RNA; smFRET buffer not in the material (RNP reconstitution for activity assays: 12.5 mM Tris/HCl pH 8.0, 250 mM NaCl, 30 °C)

Work on “H5 U61-donor snoRNA with acceptor-labeled H5 substrate RNA” yielded a binding signal (% of RNPs substrate bound) of 37.
